Laboratory results taken from a protein production outcome set (Wang et al. 2014).

Assay: label from the status in PepcDB records
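Also: failed if final PepcDB status was selected cloned or expressed and not failed if soluble or beyond.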

Question: For “MSQTLFWIAAACALAYLAMTARPASLMRSAVKTASVALLALMVLVSGGPVLLVLALALCALGDWLLSRETEATFMAGVGAFAAGHLAYVALFLTHPASDTGQLAAQWPLVAGLAALGLVMASLLAPRAGDLKGPVLAYVPIILGMGLAALTLPQAGVLAWVLPAAAAFIASDMILATEKFLLPPGHPALRLTPYLVWPLYWGAQMGFALALT”, which protein production is on record?
Answer: failed

Question: For “MTDLWLTLVNSVNAALGEVHVMTAWEALAVVLAMAYLLLAMKASVWCWAAAFTSTAIYTVLFWKVALLMESMLNIYYMGMALYGYWLWTQGGDKHQGVKVTTWPLKTHLKLIAATTLVSLGIGHGMATFTQASFPYLDAATTCFAVMTTYLVAKKVLENWLYWVVIDLVSIYLYLSKGLMLTSLLFVLYVGLAVVGYFLWRTALAESRLNLNGERAAKLLG”, which protein production is on record?
Answer: failed

Question: For “FKAVFISDTHLGTKDSKASLLLEFIKEIETKELYLVGDIIDGWSLKRKWIWLQPHSDVIQKILKAARKGVRVTYILGNHDEFIRPFLPLALGDHIRVVDEATYKAKNKKRYKIVHGDLYDSITMTKKWLAILGDNGYQFLLRLNDPINTLRQRLGFRRYWSFSQFIKDHVKQAVAYISDFEKILVAHAREEKFDGIICGHIHKAEIRDIEGITYMNCGDWVESCTALVETLEGEFKIIRW”, which protein production is on record?
Answer: failed

Question: Which protein production does the source give for “MYKYITILGAAGQIAQKLTATLLTYTDMHITLYGRQLKTRIPPEIIDHERVTVIEGSFQNPGKLEQAVTNAEVVFVGAMESGSDMASIVKALSRKNIRRVIGVSMAGLSGEFPVALEKWTFDNLPISYVQGERQARNVLRESNLNYTILRLTWLYNDPEKTDYELIPEGAQFNDAQVSREAVVKAIFDILHAADETPFHRTSIGVGEPGTHYDKPSFH” here?
Answer: not failed

Question: For “MTSNERILQPFTLPNGTELKNRLLMAPMTTCTGYFDGTVTSELVEYYRARAGSIGTIIVECCFIDDYGLAFPGAIGIDNDEKIAGLAKIAEAIKAEGSKAILQIYHGGRMVDPQLIGGRQPVAPSAIAAPREGAAMPRALSGEEVEGMIAKFGDGVRRAILAGFDGVEIHGANTYLIQQFYSPNSNQRDDEWGGSRDNRARFPLAVLDITHKMARQYADDAFIIGYRFSPEEMEVPGIRFDDTMYLLEKLAARGVDYLHFSVGATLRPSIVDTSDATPLIEKYCAMRSDTLAQVPVMGVGGVVNAADAEQGLDHGYDLIAVGRACIAYPDWASRIAAGEELELFIDSTQREALHIPEPLWRFSLVEAMIRDMSMGDAKFKPGMFVETVHDDANELVINVSLENDHIADIELAASPVQTVEFTTSFEEIRERILTANTPHVDAISGATSQSEAVKKAVAKAMLKSSKALAAEEGGNDAAPKSYDVVVVGSGGAGLAAAIQAHDEGASVLIVEKMPTIGGNTIKASAGMNAAETRFQRVKGIEDSKELFYQETLKGGHNKNNPQLLRRFVENAPQAIEWLADRGIMLNDITTTGGMSIDRTHRPRDGSAVGGYLISGLVRNITKRGIDVLLDTSVEEILMRGDEVSGVRLINDEKEVIEVQTKSIVVATGGFSANSAMVVKYRPDLEGFVTTNHKGATGSGIALLERIGAGTVDMGEIQIHPTVEQQTSYLISESIRGGGAILVNQQGNRFFNEMETRDKVSAAIIALPEHYACIVFDEHVRAKNKAADEYIAKGFVTSASSPRELAEKLGMDYHAFLATLECYNGAVEKQHDEQFGRTTALRAPINEGPFHAIRIAPGVHHTMGGVTINTDGEVLNVAQQPICGAYAAGEVVGGIHGGNRIGGNAVADIIIFGTLAGHQAAKRARG”, which protein production is on record?
Answer: failed

Question: For “MSPAPPRGPGMSQARSLSLILAAVLASLLPVTGSQAGEPGRALWVMSYNIRYDNPDDRPDWRTRRGPMVEQIRFFAPDILGLQEALPAMVDQLAGDLAGYAHYGVGRDDGARLGETTTIFYRAERFQRVLARTYWCSPTPDTPSKAYDAALPRTFTRLVLKDRITGVTFDVRNAHLDHVGAESRAKCAAQILALAPWPKARLITLGDFNSAPEEAPYRLLTAPEGPYRDARAAASSVFSPSTGTFNRFTPASIGPPIDYIFVDRRLNVARFAVPTDVADAGVISDHFPVLAEITLSPKTRAKAKP”, which protein production is on record?
Answer: failed

Question: For “MTKAREFLGTGWKFPVAAGADGAMVLSSAEEDIAESIRIILGTARGERVMRPDFGCGIHDRVFSVINTTTLGLIENEVKEALILWEPRIELLSVTASPREAAEGRLLIDIEYRVRSTNTRFNLVYPFYLKESA”, which protein production is on record?
Answer: not failed

Question: With “MAHACVSTSASSLRFTAGFVSASPNGSSFDSPKLSLPFEPLRSRKTNKLVSDRKNWKNSTPKAVYSGNLWTPEIPSPQGVWSIRDDLQVPSSPYFPAYAQGQGPPPMVQERFQSIISQLFQYRIIRCGGAVDDDMANIIVAQLLYLDAVDPTKDIVMYVNSPGGSVTAGMAIFDTMRHIRPDVSTVCVGLAASMGAFLLSAGTKGKRYSLPNSRIMIHQPLGGAQGGQTDIDIQANEMLHHKANLNGYLAYHTGQSLEKINQDTDRDFFMSAKEAKEYGLIDGVIMNPLKALQPLAAA” as the sequence, how does the protein production read?
Answer: failed

Question: With “MSLTQAQGAQQYVNINPPMPSDTPGKIEVLEFFAYTCPHCAAIEPMVEDWAKTAPQDVVLKQVPIAFNAGMKPLQQLYYTLQALERPDLHPKVFTAIHTERKRLFDKKAMGEWAASQGVDRAKFDSVFDSFSVQTQVQRASQLAEAAHIDGTPAFAVGGRYMTSPVLAGNDYAGALKVVDQLIVQSREGHHHHHH” as the sequence, how does the protein production read?
Answer: not failed

Question: Which protein production does the source give for “MVRRLACKRAYRFRFYPTPEQEQLLRRTVGCCRKVYNLALEARSTAWTAERRSITYVQTSAMLTQWKQTAEYSYMNEVSCVPLQQALRHLQTAFSNFFKQTGDYPRFKAKSHGGSAEYTRSAFTWDAKRNELTLAKMRGPLPIRWSRTLPRKTEPSTVTVSLDAAGRWHVSILVEEAIRPLPARGDAVGIDLGVDSYAVTSDGETIANPRHYRKLAERLEREQRALSRKTKGGNNRRKAALKVARTYARITDMRRDFLHKLSTRIIRENQTVVLEDLNVRNMARRCAPKPDPDNPNHWLPNGQSAKNGLNGSIMDAGWSEFRRMLEYKAEWYGRKLITIDRYYPSTQICSHCGAKTGPKGMPGLTVRAWTCPDCGTTHDRDLNAAENILAAGLAVSVCKDGRTGTKVSH” here?
Answer: failed

Question: With “MSTLRATETHRASQSAWEVFLVFLRLGLTSFGGPVAHLGYFRDAFVTRRRWLTEHAYSDIVALCQFLPGPASSQVGMVVGLSRAGYPGALAAWVGFTLPSAIALILFALGLSHYGNLVPPSALHGLKVAAVAVVAQAVWGMARSLCPDAPRITLMILAAVAVTLIPSPWCQVGVMVVAGMVGAQRFRTAQVPPHEPLSIPVGHGAAIGFLLLFAGLLAGLPVVASLIPNHALALVDAFYRAGALVFGGGHVVLPLLQATVVPTGWVNNDTFLAGYGAAQAVPGPLFTFAAFLGAAGGPAPTGWIGGIVCLLAIFAPSFLLVFGALPFWERLRRHAGTRAALAGVNAAVVGLLLSALYQPVWTSAIHAPADFALALLALAALTVWRVPPWAVVTGCALAGWGMHVGGVA” as the sequence, how does the protein production read?
Answer: failed

Question: Which protein production does the source give for “MTTLEAFAKARSEGRAALIPYLTAGFPSREGFLQAVEEVLPYADLLEIGLPYSDPLGDGPVIQRASELALRKGMSVQGALELVREVRALTEKPLFLMTYLNPVLAWGPERFFGLFKQAGATGVILPDLPPDEDPGLVRLAQEIGLETVFLLAPTSTDARIATVVRHATGFVYAVSVTGVTGMRERLPEEVKDLVRRIKARTALPVAVGFGVSGKATAAQAAVADGVVVGSALVRALEEGRSLAPLLQEIRQGLQRLEANPGLKESSKKPLP” here?
Answer: not failed

Question: For “MSETTQTSQSLYQALWNSADVLRSKMDANDYKSYLLGMVFYKYLSDKMLFFVAETMEEETESLDEALAVYRKYYEDEETHEDLLAVITDEMSYAIHPDLTFTALVERVNDGSFQLEDLAQGFRDIEQSDELYENLFEDIDLYSKKLGATPQKQNQTVAAVMKELAVLDVAGHAGDMLGDAYEYLIGQFATDSGKKAGEFYTPQPVAKLMTQIAFLGREDKQGFTLYDATMGSGSLLLNAKRYSRQPQTVVYFGQELNTSTYNLARMNMILHGVPIENQFLHNADTLDEDWPTQEPTNFDGVLMNPPYSAKWSASSGFMDDPRFSPFGKLAPKSKADFAFLLHGYYHLKQDNGVMAIVLPHGVLFRGNAEGTIRKALLEEGAIDTVIGLPANIFFNTSIPTTVIILKKNRTNRDVYFIDASKEFDKGKNQNIMTDAHIEKILNAYKSREDIDKFAHLASFEEIVENDYNLNIPRYVDTFEEEEVEPLTEIVAKINQTNATIESQTASLLDMLGQLHGTTPEADEELKAFVKAFKGLEHHHHHH”, which protein production is on record?
Answer: failed
